Measurements reported in patent publication US9821037B1, “Compounds and method of use as anti-infection compounds and therapeutic agents to regulate cholesterol metabolism” (University of Kentucky Research Foundation, priority 2013, dated 2017).

B1: YSS-92: the 92 C-terminal amino acids of YSS (protein, UniProt P29704 353-444, looked up, fragment)
chain: KSKLAVQDPNFLKLNIQISKIEQFMEEMYQDKLPPNVKPNETPIFLKVKERSRYDDELVPTQQEEEYKFNMVLSIILSVLLGFYYIYTLHRA
B2: YSS: squalene synthase from S. cerevisiae (protein, UniProt P29704 1-444, looked up)
chain: MGKLLQLALHPVEMKAALKLKFCRTPLFSIYDQSTSPYLLHCFELLNLTSRSFAAVIRELHPELRNCVTLFYLILRALDTIEDDMSIEHDLKIDLLRHFHEKLLLTKWSFDGNAPDVKDRAVLTDFESILIEFHKLKPEYQEVIKEITEKMGNGMADYILDENYNLNGLQTVHDYDVYCHYVAGLVGDGLTRLIVIAKFANESLYSNEQLYESMGLFLQKTNIIRDYNEDLVDGRSFWPKEIWSQYAPQLKDFMKPENEQLGLDCINHLVLNALSHVIDVLTYLAGIHEQSTFQFCAIPQVMAIATLALVFNNREVLHGNVKIRKGTTCYLILKSRTLRGCVEIFDYYLRDIKSKLAVQDPNFLKLNIQISKIEQFMEEMYQDKLPPNVKPNETPIFLKVKERSRYDDELVPTQQEEEYKFNMVLSIILSVLLGFYYIYTLHRA
modifications: full-length
notes: squalene synthase from S. cerevisiae

Experiments:
BY4741 yeast = assay: Saccharomyces cerevisiae growth inhibition assay (galactose-inducible over-expression of C-terminus constructs); assay type: cell-based; settings: 4 days, 28° C.; for yeast growth with gene expression induced: BY4741, galactose as carbon source
Description: Constructs were created in which the C-terminal 92 AA of YSS, the C-terminal 64 AA of YSS, the C-terminal 66 AA of ASS, the C-terminal 92 AA of YSS in which the 26 AA domain is replaced by the corresponding of ASS or BSS, and the C-terminus of either ASS or BSS in which the 26 AA domain is replaced by the corresponding of YSS were cloned into the pESC-Ura (Gal1 and Gal10 promoters) vector. Constructs were transformed into BY4741 yeast and positive transformants were grown in 2 mL of Yeast-Synthetic Drop-out medium for 4 days. Serial dilutions (Corresponding to O.D.600=0.5, 0.1, 0.02, and 0.004) were plated on selection media containing either glucose or galactose as the carbon source. Pictures were taken after 4 days growth at 28° C.
To test this possibility, a gene coding for the 92 carboxy terminal residues of the yeast squalene synthase was inserted into a galactose inducible expression vector and the recombinant vector introduced into a wild type yeast (BY4741) (FIG. 7). When grown on glucose, expression of the 92 carboxy-terminal squalene synthase gene was suppressed and the transformed yeast grew normally. […] If a plant complementary carboxy-terminal gene was substituted for the yeast, no adverse effects were noted. When the 26 amino acid linker domain was deleted from the yeast gene construct, growth also was not impaired.
Constructs to be tested in S. cerevisiae were created using the pESC-Leu vector (Agilent) which harbors the Gal1/Gal10 divergent promoter to allow for galactose induction of gene expression. Primers used to create these constructs are listed in Table 4 (restriction sites, if any, in bold). YSS-92 was created by PCR amplifying a portion of the YSS gene corresponding to the 92 C-terminal amino acids using the primer sets, YSS-92 EcoRI For and YSS NotI Rev, and YSS-92 BamHI For and YSS HindIII Rev, and cloning into pESC-Leu with the corresponding restriction enzyme sites. ASS-66 and YSS-64 were created in the same manner. ASS-YSS and YSS-ASS were created in a similar manner using YSS-ASS-YSS or ASS-YSS-ASS as the templates for PCR, respectively. […]

[1] = test system: erg9 knockout yeast line CALI7-1; assay: erg9 complementation assay (restoration of ergosterol prototrophy); assay type: cell-based, S. cerevisiae; settings: construct expressed in CALI7-1; plates lacking ergosterol, 28° C., 72 h
Description: Various squalene synthases were cloned into the yeast expression vector, Yep352-ADH1, including those from S. cerevisiae (YSS), B. braunii (BSS), N. benthamiana (TSS), A. thaliana (ASS), and R. norvegicus (RSS), as well as a C-terminal truncated form of YSS in which 24 amino acids comprising the ER membrane-spanning region were eliminated (YSStr). These constructs were transformed into the yeast line CALI7-1, which has been selected for high level FPP biosynthesis (10) and has an erg9 knockout mutation. It is unable to synthesize sterols de novo and is dependent on exogenous ergosterol for growth. […] To evaluate the encoded enzymes for catalytic activity, extracts prepared from the CALI7-1 yeast lines were assayed for squalene synthase enzyme activity. Constructs were also expressed in TN-7 yeast line and cultures were grown in liquid media with ergosterol and subsequently analyzed for squalene accumulation. Squalene levels were determined in TN-7 because in this yeast line, there is no possibility of squalene feeding into the ergosterol biosynthetic pathway. This allows for accurate comparisons of squalene production by the various SS enzymes.
The Cali7-1 yeast line, which has an erg9 deletion so that it cannot synthesize sterols de novo and requires exogenous ergosterol for growth, was used for these purposes (10). […]

Molecule	yeast growth with gene expression induced (BY4741 yeast)	yeast growth with gene expression suppressed (BY4741 yeast; BY4741, glucose as carbon source)	ability to complement the erg9 deletion (growth without exogenous ergosterol) [1]
KSKLAVQDPNFLKLNIQISKIEQFME (listed as Saccharomyces cerevisiae) [26 amino acid stretch of YSS, 26 amino acid linker-domain of squalene synthase from S. cerevisiae]	can inhibit the growth of yeast	–	–
B1	growth was severely arrested	grew normally	–
B2	–	–	could restore ergosterol prototrophy
